Article PMC7653264 (2020)

How the values were obtained:
GST-PCNA [1] = biological target: T1, GST-PCNA (UniProt P12004 1-261); assay: ITC
GST-PCNA [2] = biological target: T1, GST-PCNA; assay: ITC; remark: listed apart in the source

T1 sequence (P12004 whole entry): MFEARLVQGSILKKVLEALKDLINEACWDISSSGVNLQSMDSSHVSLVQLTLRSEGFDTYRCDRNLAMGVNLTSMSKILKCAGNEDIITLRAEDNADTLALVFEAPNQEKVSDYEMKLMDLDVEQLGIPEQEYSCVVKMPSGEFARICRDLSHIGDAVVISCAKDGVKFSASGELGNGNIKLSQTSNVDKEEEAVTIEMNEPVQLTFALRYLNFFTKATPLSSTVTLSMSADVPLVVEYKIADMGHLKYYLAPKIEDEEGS

Kd (GST-PCNA [1]): 1330 nM | Ka (GST-PCNA [2]): 1.16e+06 M⁻¹
B1: H3K79me0 peptide (amino acids H3 75-83) (peptide)
chain: AQDFKTDLR
